Reference: PMC6863705 (Protein Science : A Publication of the Protein Society, 2019)

Tests used:
Ssk1-R2-R524A = molecular target: T1, Ssk1-R2-R524A (S. cerevisiae, UniProt Q07084 495-712, R524A); test: other fluorescence titration
T1 sequence: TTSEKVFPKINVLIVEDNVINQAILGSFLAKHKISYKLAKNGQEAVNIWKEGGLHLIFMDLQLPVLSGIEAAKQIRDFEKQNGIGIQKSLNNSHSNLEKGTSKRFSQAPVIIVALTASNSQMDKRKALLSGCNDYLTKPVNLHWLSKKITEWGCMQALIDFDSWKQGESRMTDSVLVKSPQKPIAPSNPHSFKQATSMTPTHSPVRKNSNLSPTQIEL

Ssk1-R2-W638A = molecular target: T2, Ssk1-R2-W638A (S. cerevisiae, UniProt Q07084 495-712, W638A); test: other fluorescence titration
T2 sequence: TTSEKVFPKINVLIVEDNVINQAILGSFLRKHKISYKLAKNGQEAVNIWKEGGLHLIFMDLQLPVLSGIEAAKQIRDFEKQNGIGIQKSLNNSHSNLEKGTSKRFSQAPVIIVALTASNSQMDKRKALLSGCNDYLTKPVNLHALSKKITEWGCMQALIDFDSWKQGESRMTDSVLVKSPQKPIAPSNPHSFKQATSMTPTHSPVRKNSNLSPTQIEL

[1] = molecular target: T3, Receiver domain of Ssk1 (Ssk1-R2), wild type (S. cerevisiae, UniProt Q07084 495-712); test: other fluorescence titration
T3 sequence: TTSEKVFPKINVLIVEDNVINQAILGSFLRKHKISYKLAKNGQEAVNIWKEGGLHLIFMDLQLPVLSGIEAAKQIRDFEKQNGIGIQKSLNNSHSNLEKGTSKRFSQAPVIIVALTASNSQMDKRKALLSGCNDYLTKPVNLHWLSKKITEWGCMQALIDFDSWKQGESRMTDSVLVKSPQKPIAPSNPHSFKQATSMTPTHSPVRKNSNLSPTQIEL

Ssk1-R2-K525A = molecular target: T4, Ssk1-R2-K525A (S. cerevisiae, UniProt Q07084 495-712, K525A); test: other fluorescence titration
T4 sequence: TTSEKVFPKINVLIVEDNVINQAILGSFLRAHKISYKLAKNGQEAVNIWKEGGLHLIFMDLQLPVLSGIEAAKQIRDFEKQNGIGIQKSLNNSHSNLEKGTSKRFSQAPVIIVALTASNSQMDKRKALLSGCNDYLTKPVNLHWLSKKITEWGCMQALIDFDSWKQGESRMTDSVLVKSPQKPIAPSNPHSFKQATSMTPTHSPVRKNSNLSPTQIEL

[2] = molecular target: T5, Selenomethionine derivative of Ssk1-R2-W638A (S. cerevisiae, UniProt Q07084 495-712, W638A, selenomethionine incorporated); test: crystal structure
T5 sequence: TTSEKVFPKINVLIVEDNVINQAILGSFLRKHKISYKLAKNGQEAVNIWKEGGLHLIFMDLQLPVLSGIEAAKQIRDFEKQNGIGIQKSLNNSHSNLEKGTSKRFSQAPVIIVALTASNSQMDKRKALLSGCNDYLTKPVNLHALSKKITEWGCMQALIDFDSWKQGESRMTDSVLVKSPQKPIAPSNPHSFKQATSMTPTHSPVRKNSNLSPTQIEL

B1: Fluoresceinated Ypd1-T12C variant (Ypd1-T12C~F) (natural protein, S. cerevisiae, UniProt Q07688 1-167, looked up)
chain: MSTIPSEIINWCILNEIISMDDDDSDFSKGLIIQFIDQAQTTFAQMQRQLDGEKNLTELDNLGHFLKGSSAALGLQRIAWVCERIQNLGRKMEHFFPNKTELVNTLSDKSIINGINIDEDDEEIKIQVDDKDENSIYLILIAKALNQSRLEFKLARIELSKYYNTNL
modifications: 5-iodoacetamidofluorescein (5-IAF) on the cysteine at 12 (T12C)
A Kd (Ssk1-R2-R524A) of 918 nM, a Kd (Ssk1-R2-W638A) of 219 nM and a Kd [1] of 23.7 nM were found for B1 in this work. The Kd (Ssk1-R2-K525A) was 640 nM.

B2: Ypd1 (histidine phosphotransfer protein) from S. cerevisiae (natural protein, UniProt Q07688 1-167, looked up)
chain: MSTIPSEIINWTILNEIISMDDDDSDFSKGLIIQFIDQAQTTFAQMQRQLDGEKNLTELDNLGHFLKGSSAALGLQRIAWVCERIQNLGRKMEHFFPNKTELVNTLSDKSIINGINIDEDDEEIKIQVDDKDENSIYLILIAKALNQSRLEFKLARIELSKYYNTNL
B2: binds [2].
